Assay results taken from article PMC10653890, “The morphogenic protein CopD controls the spatio-temporal dynamics of PBP1a and PBP2b in Streptococcus pneumoniae” (mBio, 2023).

T1: PBP1aTP, transpeptidase domain of PBP1a (Ser266 to Asn650) (S. pneumoniae R800 strain, UniProt Q8DR59 266-650)
T1 construct: also called PBP1aTP-6his; source: E. coli BL21 star (DE3), purified (Ni-NTA; extracellular domain digested by trypsin; gel filtration)
T1 sequence (looked up): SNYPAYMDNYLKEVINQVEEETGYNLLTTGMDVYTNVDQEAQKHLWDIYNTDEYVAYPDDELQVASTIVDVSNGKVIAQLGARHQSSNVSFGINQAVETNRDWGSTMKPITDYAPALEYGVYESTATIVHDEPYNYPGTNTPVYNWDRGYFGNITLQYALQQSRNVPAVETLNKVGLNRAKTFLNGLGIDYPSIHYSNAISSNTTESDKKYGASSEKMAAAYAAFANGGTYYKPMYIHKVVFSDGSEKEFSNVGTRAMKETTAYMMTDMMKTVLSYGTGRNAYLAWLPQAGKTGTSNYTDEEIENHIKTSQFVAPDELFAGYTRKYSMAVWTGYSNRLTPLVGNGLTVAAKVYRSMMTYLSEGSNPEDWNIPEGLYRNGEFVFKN

B1: CopDED, extracellular two-PEPSY domain of CopD (Met38 to Leu162) (domain or fragment)
chain: SMKPYQTAKSEGEKLAQQYAGLEQADQVDLYNGLESYYSVLGRNKQQEALAVLIGKDDHKIYVYQLNQGISQEKAETVSKEKGAGEIDKITFGRYQDKPIWEVKSGSDFYLVDFETGALVNKEGL
modifications: labelled with the Protein labeling kit red NHS 2nd generation (Nanotemper)

Columns and labels:
[1] = target: T1, PBP1aTP, transpeptidase domain of PBP1a …; assay: MST; Monolith NT.115; labelled CopDED at 168 nM, PBP2bTP 5.2 µM to 0.159 nM or PBP1aTP 4.5 µM to 0.137 nM; 20 mM HEPES pH 7.5, 300 mM NaCl, 10% glycerol, 0.1% Tween 20; 25°C; conditions: both partners purified
[2] = target: B1; assay: as above; conditions: both partners purified

| Binder | Kd [1] [µM] | Kd [2] [µM] |
| --- | --- | --- |
| B1 | > 10 | – |
| PBP2bTP, transpeptidase domain of PBP2b (Met39 to Asn685) (domain or fragment) MQVLNKDFYEKKLASASQTKITSSSARGEIYDASGKPLVENTLKQVVSFTRSNKMTATDLKETAKKLLTYVSISSPNLTERQLADYYLADPEIYKKIVEALPSEKRLDSDGNRLSESELYNNAVDSVQTSQLNYTEDEKKEIYLFSQLNAVGNFATGTIATDPLNDSQVAVIASISKEMPGISISTSWDRKVLETSLSSIVGSVSSEKAGLPAEEAEAYLKKGYSLNDRVGTSYLEKQYEETLQGKRSVKEIHLDKYGNMESVDTIEEGSKGNNIKLTIDLAFQDSVDALLKSYFNSELENGGAKYSEGVYAVALNPKTGAVLSMSGIKHDLKTGELTPDSLGTVTNVFVPGSVVKAATISSGWENGVLSGNQTLTDQSIVFQGSAPINSWYTQAYGSFPITAVQALEYSSNTYMVQTALGLMGQTYQPNMFVGTSNLESAMEKLRSTFGEYGLGTATGIDLPDESTGFVPKEYSFANYITNAFGQFDNYTPMQLAQYVATIANNGVRVAPRIVEGIYGNNDKGGLGDLIQQLQPTEMNKVNISDSDMSILHQGFYQVAHGTSGLTTGRAFSNGALVSISGKTGTAESYVADGQQATNTNAVAYAPSDNPQIAVAVVFPHNTNLTNGVGPSIARDIINLYQKYHPMN | – | > 10 |
